Measurements published in US6136558A, “Heregulin variants” (Genentech, Inc., priority 1998, dated 2000).
Ends that are not written are not given here.

Tests used:
[1] = target: ErbB-2/3 receptor-Ig fusion (ErbB-2/3-Ig); assay: Phage ELISA, competition with soluble ErbB-2/3-Ig; format: binding; details: EGF-like domain displayed monovalently on phage as pIII fusion; soluble ErbB-2/3-Ig competing half of the phage off the plate; average of duplicate experiments
Description: (§1) To produce phage displaying the domains, mutagenesis reaction mixtures were electrotransformed into XL1-Blue™ cells (Stratagene, Inc., La Jolla, Calif.), according to the manufacturer's protocol. The transformed cells were then infected with 10^11 plaque-forming units (pfu) M13K07 helper phage (Promega Corp., Madison, Wis.). […] The phage were resuspended in phosphate-buffered saline (PBS: 0.01 M sodium phosphate, 0.1 M NaCl, pH 7.5).
(§2) Microtiter plates (Nunc Maxisorp™ 96-well plates, Inter Med, Denmark) for phage ELISA were prepared as follows. The wells were precoated overnight with 0.5 μg of rabbit anti-human IgG (Fc gamma fragment-specific) antibodies (Jackson Immunoresearch, West Grove, Pa.) in 100 μL 50 mM NaCO3 (pH 9.6). The wells were blocked for 30 minutes (min) with 200 μL PBS containing 0.1% bovine serum albumin (BSA) and rinsed with wash buffer (PBS containing 0.05% Tween 20™). The wells were then coated with 0.1 μg ErbB-2/3-Ig in binding buffer (PBS, 0.1% BSA, 0.05% Tween 20™) for 1 h, and washed again.
(§3) Following incubation for 2 h at room temperature, plates were washed extensively and treated with a 1:900 dilution of anti-M13 horseradish peroxidase conjugate (Pharmacia, Piscataway, N.J.) for 20 min. The amount of phage binding was determined by assaying horseradish peroxidase activity using o-phenylenediamine dihydrochloride) substrate solution (Sigma Chemical Company, St. Louis, Mo.).

ErbB-3-Ig [2] = assay: Phage ELISA, binding to ErbB-3-Ig; details: phage ELISA
Description: as §1, §2, §3
(§4) Alanine-substituted variants were generated by site-directed mutagenesis according to Kunkel et al., Methods Enzymol. […] A series of oligonucleotides was used to generate a series of constructs that expressed a series of variants in which consecutive residues were mutated to alanine.
(§5) In addition, phagemid vectors for use in producing phage displaying mutated HRG-β1 EGFs containing various combinations of the above mutations ("combination variants") were prepared by Kunkel mutagenesis, using templates prepared from several of the above-described variants. […] Some of the variants and combination variants were also tested for relative ErbB-4-Ig affinity to assess specificity.
(§6) The affinities of the variants for ErbB-3-Ig and ErbB-4-Ig were determined to assess specificity.

ErbB-4-Ig [3] = assay: Phage ELISA, binding to ErbB-4-Ig; details: phage ELISA
Description: as §1, §2, §3, §4, §5, §6

ErbB-3-Ig [4] = assay: Inhibition of 125I-HRG-β1 177-244 binding to ErbB-3-Ig by soluble protein; details: soluble HRG-β1 EGF variant free of pIII; inhibition of 125I-HRG binding; read-out: ErbB-3-Ig EC50
Experimental: (§7) The affinities of the Trx-variant fusions for ErbB receptor-Ig fusions were determined by measuring inhibition of ^125 I-HRG-β1 177-244 binding to ErbB-3-Ig and ErbB-4-Ig. Receptor fusions were coated on plates (Nunc Maxisorp C™ break-apart strip wells, Inter Med, Denmark) via anti-human IgG, as described in Example 1 for phage ELISA. Binding assays were carried out with a constant amount of ^125 I-HRG-β1 177-244 (100-300 pM) and varying concentrations (100 pM-4 μM) of unlabeled Trx-variant fusion. Following incubation for 1-3 h at room temperature, plates were washed, and the amount of bound ^125 I-HRG-β1 177-244 in each well was counted on a gamma counter (Isodata, ICN Biomedic Systems, Huntsville, Ala.). For the ErbB-3 binding assays, the blocking buffer was TBST (0.025 M Tris-HC1 [pH 7.5], 0.15 M NaCl, 0.02% Tween 20™) containing 1% BSA; the binding buffer was RPMI 1640™ cell culture media (Gibco-BRL, Gaithersburg, Md.) containing 2 mM glutamine, 100 U/mL penicillin, 100 μg/mL streptomycin, 10 mM HEPES buffer (pH 7.2), 0.2% BSA; and the wash buffer was TBST. For the ErbB-4 binding assays, PBS containing 1% BSA was used as the blocking and binding buffers, and the wash buffer was PBS containing 0.05% Tween 20™.

ErbB-4-Ig [5] = assay: Inhibition of 125I-HRG-β1 177-244 binding to ErbB-4-Ig by soluble protein; details: soluble HRG-β1 EGF variant free of pIII; inhibition of 125I-HRG binding; read-out: ErbB-4-Ig EC50
Experimental: as §7

ErbB-2/3-Ig = assay: Inhibition of 125I-HRG binding to ErbB-2/3-Ig by soluble variant
[6] = target: ErbB-4 receptor-Ig fusion (human) (UniProt Q15303); assay: phage ELISA, soluble ErbB-4-Ig as competitor
[7] = target: ErbB-3 receptor-Ig fusion (human) (UniProt P21860); assay: phage ELISA, soluble ErbB-3-Ig as competitor (only one value in the row, read as the phage column)
[8] = target: ErbB-3 receptor-Ig fusion (human) (UniProt P21860); assay: phage ELISA, soluble ErbB-3-Ig as competitor
[9] = target: ErbB-4 receptor-Ig fusion (human) (UniProt Q15303); assay: phage ELISA, soluble ErbB-4-Ig as competitor; remark: listed apart in the source
[10] = target: ErbB-2/3 receptor-Ig fusion (human) (UniProt P04626); assay: phage ELISA, soluble ErbB-2/3-Ig as competitor
[11] = target: ErbB-3 receptor-Ig fusion (human) (UniProt P21860); assay: phage ELISA, ratio to wild-type HRG8 phage (reference itself)
[12] = target: ErbB-4 receptor-Ig fusion (human) (UniProt Q15303); assay: as above
[13] = target: ErbB-2/3 heterodimers on MCF7 breast cancer carcinoma cells (Homo sapiens (Human), UniProt P04626); assay: cell-based or functional assay
[14] = target: ErbB-3 receptor-Ig fusion (human) (UniProt P21860); assay: displacement of 125I-HRG from ErbB-3-Ig
[15] = target: ErbB-4 receptor-Ig fusion (human) (UniProt Q15303); assay: displacement of 125I-HRG from ErbB-4-Ig
[16] = target: ErbB-2/3 receptor-Ig fusion (human) (UniProt P04626); assay: displacement of 125I-HRG from ErbB-2/3-Ig
[17] = relative to wild-type HRG-β1 EGF phage in same run, above 1 = higher affinity than wild-type

## HRG8: wild-type HRG-β1 177-228 minimal EGF-like domain; on phage via (GGGS)3 linker to pIII 323, or soluble (SHLVKCAEKEKTFCVNGGECFMVKDLSNPSRYLCKCPNEFTGDRCQNYVMAS; not fully specified; cysteine pairing not given here) [reference compound]
[1]
  EC50: 11 nM
  ErbB-2/3-Ig EC50: slight affinity enhancement
ErbB-3-Ig [2]; reference value of Table 13, read-out: wild-type HRG-β1 EGF-phage EC50 for ErbB3-Ig
  EC50: 135 ± 104 nM
ErbB-3-Ig [2]; [17]
  Phage ErbB-3 EC50 (wt)/EC50 (mut): 1
ErbB-4-Ig [3]; reference value of Table 13, read-out: wild-type HRG-β1 EGF-phage EC50 for ErbB4-Ig
  EC50: 163 ± 112 nM
ErbB-4-Ig [3]; [17]
  Phage ErbB-4 EC50 (wt)/EC50 (mut): 1
ErbB-3-Ig [4]
  EC50: 2.3 ± 0.2 nM
ErbB-4-Ig [5]
  EC50: 1.5 ± 0.1 nM
ErbB-2/3-Ig; ErbB-2/3-Ig versus ErbB-3-Ig homodimer
  affinity for the 2/3-heterodimer versus the 3/3 homodimer: approximately 100 fold
ErbB-2/3-Ig; soluble HRG-β1 EGF variant free of pIII, inhibition of 125I-HRG binding
  EC50: 0.033 ± 0.003 nM

## HRG-β1 177-244 V199A on phage (ligand)
[6]
  EC50: 47 nM
[7]
  EC50: 27 nM

B1: HRG8 (wild-type HRG-β1 EGF displayed on phage) (ligand)
chain: SHLVKCAEKEKTFCVNGGECFMVKDLSNPSRYLCKCPNEFTGDRCQNYVMAS
[8]
  EC50: 135 nM
[9]
  EC50: 163 nM
[10]
  EC50: 11 nM
[11]
  EC50(wt)/EC50(mut): 1
[12]
  EC50(wt)/EC50(mut): 1

B2: HRG8 (WT), soluble wild-type HRG-β1 EGF (ligand)
chain: B1 chain
modifications: ends and bridges not checked; cysteine pairing not given here
[13]
  KIRA EC50 (tyrosine phosphorylation of the ErbB-2 receptor on MCF7 cells): 0.212 nM
[14]
  EC50: 2.3 nM
[15]
  EC50: 1.5 nM
[16]
  EC50: 0.033 nM
